# B1: Monoclonal antibody 1C6.E12.G8 (antibody, mouse IgG1, V domains shown)
# VH: SGARELVKPGASVKLSCKTSGFTFNSSYITWLKQKPGQSLEWIAWIYAGNGGTTYNQKFTGKAQLTVDTSSSTAYMQFSSLTTEDSAIYYCASETYTNYWYFDVWGSGTTVTVSS
# VL: QSPASLSASVGETVTITCRASGNIHNYLAWYQQKQGKSPQLLVYNAKTLADGVPSRFSGSGSGTQYSLKINSLQPEDFGSYYCQHFWSTPYTFGGGTKLEIK
# notes: Murine IgG1 kappa from hybridoma; also called ATCC PTA-123091
# B2: Monoclonal antibody 1D2.D8.G10 (antibody, mouse IgG1, V domains shown)
# VH: QSGTVLARPGASVKMSCKASGYSFTSNWMHWIKQRPGQGLEWIGAIYPGNSDTSYNQKFKGKAKLTAVTSASTAYMELSSLTNEDSAVYHCTRGDGSSFWYFDVWGAGTTVTVSS
# VL: QSPASLVVSLGQRATISCRASKSVSTSGYSYMYWYQQKSGQPPKLLIYLASNLESGVPARFSGGGSGTDFTLNIHPVEEEDAATYYCQQSRELPPTFGGGTKLEIK
# notes: Murine IgG1 kappa from hybridoma; also called 1D2.D8.G0; ATCC PTA-123098
# B3: Monoclonal antibody 5C12.H8 (antibody, mouse IgG2b, V domains shown)
# VH: GPGLVKPSQSLSLTCSVTGYSITSGYYWIWIRQFPGNKLEWMGYISYDGSNNYNPSLKNRISITRDTSKNQFFLKLNSVTTEDTATYYCARGNYYAMDYWGQGTSVTVSS
# VL: not shown
# notes: Murine IgG2b kappa from hybridoma; also called ATCC PTA-123095
# B4: Monoclonal antibody 6A2.G7 (antibody, mouse IgG1, V domains shown)
# VH: GADLVKPGASVKMSCKASGYTFSRYNMHWVKQTPGQGLEWIGTIYPGNGDTSYNEKFKGKATLTADKSSSIVYMQVSSLTSEASAVYYCARDYGSRYALDYWGQGTSVTVSS
# VL: SSLSASLGDRVTISCRASQDISNYLNWYQQKPDGTVKLLIYYTSRLHSGVPSRFSGSGSGTDYSLTISNLEQEDIATYFCQQGNTLPYTFGGGTKLEIK
# notes: Murine IgG1 kappa from hybridoma; also called ATCC PTA-123093
# Target: T1, recombinant human folate receptor alpha (rhFRα) (human, UniProt P15328 25-234)
# T1 construct: CHO: Ig kappa leader, C-terminal 6xHis replacing the GPI attachment site; also called FOLR1; FOLR-1
# Assay: BIAcore (SPR), format not described
# T1 sequence (P15328 25-234 limits assumed): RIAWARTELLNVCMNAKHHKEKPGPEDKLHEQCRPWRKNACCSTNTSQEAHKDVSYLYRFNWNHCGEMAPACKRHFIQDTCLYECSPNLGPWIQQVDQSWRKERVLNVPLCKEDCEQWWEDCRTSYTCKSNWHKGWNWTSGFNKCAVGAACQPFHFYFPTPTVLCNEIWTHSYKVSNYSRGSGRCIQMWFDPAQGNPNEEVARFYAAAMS
row,Kd [nM],Binder
1,9.76,B1
2,6.88,B2
3,10.8,B3
4,15,B4

# Target: T2, recombinant purified FRα (ECL assay calibrator) (human, UniProt P15328 25-234)
# T2 construct: Calibrator of the ECL sandwich assays; also called FRα calibrator; FRα standard
# Assay: ECL sandwich, FRα calibrator; capture 6A2.G7; binder = detection Ab
# T2 sequence (P15328 25-234 limits assumed): as above
row,Specific signal at 500 pg/mL,Binder
1,967,B1
2,1690,B2
3,596,B3
4,92,B4

# Target: T2, recombinant purified FRα (ECL assay …)
# Assay: ECL sandwich, FRα calibrator; capture 19D2.G9; binder = detection Ab
row,Specific signal at 500 pg/mL,Binder
1,80,B1
2,67,B2
3,77,B3
4,11700,B4

# Target: T2, recombinant purified FRα (ECL assay …)
# Assay: ECL sandwich, FRα calibrator; capture 24H8.D3; binder = detection Ab
row,Specific signal at 500 pg/mL,Binder
1,74,B1
2,79,B2
3,71,B3
4,6620,B4

# Target: T2, recombinant purified FRα (ECL assay …)
# Assay: ECL sandwich, FRα calibrator; capture 24H8.F3; binder = detection Ab
row,Specific signal at 500 pg/mL,Binder
1,75,B1
2,67,B2
3,60,B3
4,3890,B4

# Target: T2, recombinant purified FRα (ECL assay …)
# Assay: ECL sandwich, FRα calibrator; capture 26A9.C4; binder = detection Ab
row,Specific signal at 500 pg/mL,Binder
1,73,B1
2,86,B2
3,78,B3
4,347,B4

# Target: T2, recombinant purified FRα (ECL assay …)
# Assay: ECL sandwich, FRα calibrator; capture 2F11.F8; binder = detection Ab
row,Specific signal at 500 pg/mL,Binder
1,67,B1
2,62,B2
3,123,B3
4,283,B4

# Target: T2, recombinant purified FRα (ECL assay …)
# Assay: ECL sandwich, FRα calibrator; capture 5C12.H8; binder = detection Ab
row,Specific signal at 500 pg/mL,Binder
1,70,B1
2,73,B2
3,100,B3
4,100,B4

# Target: T2, recombinant purified FRα (ECL assay …)
# Assay: ECL sandwich, FRα calibrator; capture 19D4.B7; binder = detection Ab
row,Specific signal at 500 pg/mL,Binder
1,37500,B1
2,21800,B2
3,18400,B3
4,10800,B4

# Target: T2, recombinant purified FRα (ECL assay …)
# Assay: ECL sandwich, FRα calibrator; capture 28H12.G9; binder = detection Ab
row,Specific signal at 500 pg/mL,Binder
1,92,B1
2,78,B2
3,68,B3
4,432,B4

# Target: T2, recombinant purified FRα (ECL assay …)
# Assay: ECL sandwich, FRα calibrator; capture 1C6.E12.G8; binder = detection Ab
row,Specific signal at 500 pg/mL,Binder
1,86,B1
2,74,B2
3,58,B3
4,217,B4

# Target: T2, recombinant purified FRα (ECL assay …)
# Assay: ECL sandwich, FRα calibrator; capture 1D2.G8.G10; binder = detection Ab
row,Specific signal at 500 pg/mL,Binder
1,53,B1
2,87,B2
3,57,B3
4,347,B4

# Target: T2, recombinant purified FRα (ECL assay …)
# Assay: ECL sandwich, FRα calibrator; capture 1A8.G11.E7; binder = detection Ab
row,Specific signal at 500 pg/mL,Binder
1,54,B1
2,57,B2
3,66,B3
4,6000,B4

# Target: T3, human folate receptor beta (FRβ), recombinant, C-terminal 6xHis (human, UniProt P14207 17-230, limits assumed)
# T3 construct: Transiently expressed in 293F cells and purified; coated on ELISA plates
# Assay: direct ELISA, plates coated with 1 µg/mL FR isoform, dilution series of culture supernatant
# T3 sequence (P14207 other isoform, or with tags, fused parts or gaps limits assumed): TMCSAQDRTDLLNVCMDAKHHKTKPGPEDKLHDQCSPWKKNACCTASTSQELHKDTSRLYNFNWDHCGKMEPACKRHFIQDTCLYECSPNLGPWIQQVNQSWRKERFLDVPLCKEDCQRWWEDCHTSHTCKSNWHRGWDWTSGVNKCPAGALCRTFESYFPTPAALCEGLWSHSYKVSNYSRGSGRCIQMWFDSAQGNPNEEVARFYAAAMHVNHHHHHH
row,binding result,Binder
1,no binding,B1
2,no binding,B2
3,no binding,B3
4,no binding,B4

# Target: T4, human folate receptor gamma (FRγ), recombinant, C-terminal 6xHis (human, UniProt P41439 23-245, limits assumed)
# T4 construct: Transiently expressed in 293F cells and purified; coated on ELISA plates
# Assay: as above
# T4 sequence (P41439 other isoform, or with tags, fused parts or gaps limits assumed): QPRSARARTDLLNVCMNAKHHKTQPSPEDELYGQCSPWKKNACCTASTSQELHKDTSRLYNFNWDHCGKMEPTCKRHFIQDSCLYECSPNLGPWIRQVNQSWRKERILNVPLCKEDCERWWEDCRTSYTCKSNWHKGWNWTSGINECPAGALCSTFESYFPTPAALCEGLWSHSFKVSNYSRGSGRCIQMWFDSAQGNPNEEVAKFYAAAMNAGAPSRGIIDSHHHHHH
row,binding result,Binder
1,no binding,B1
2,no binding,B2
3,no binding,B3
4,no binding,B4

# Target: T2, recombinant purified FRα (ECL assay …)
# Assay: ECL sandwich, FRα calibrator; capture 30G6.G6.G4.E9; binder = detection Ab
row,Specific signal at 500 pg/mL,Binder
1,10900,B1
2,7910,B2
3,5290,B3
4,2410,B4

# Target: T2, recombinant purified FRα (ECL assay …)
# Assay: ECL sandwich on FRα, signal to background; capture 6A2.G7; binder = detection Ab
row,Average of S/B,Binder
1,19,B1
2,26,B2
3,9,B3
4,1,B4

# Target: T2, recombinant purified FRα (ECL assay …)
# Assay: ECL sandwich on FRα, signal to background; capture 19D2.G9; binder = detection Ab
row,Average of S/B,Binder
1,1,B1
2,1,B2
3,1,B3
4,205,B4

# Target: T2, recombinant purified FRα (ECL assay …)
# Assay: ECL sandwich on FRα, signal to background; capture 24H8.D3; binder = detection Ab
row,Average of S/B,Binder
1,1,B1
2,1,B2
3,1,B3
4,109,B4

# Target: T2, recombinant purified FRα (ECL assay …)
# Assay: ECL sandwich on FRα, signal to background; capture 24H8.F3; binder = detection Ab
row,Average of S/B,Binder
1,1,B1
2,1,B2
3,1,B3
4,63,B4

# Target: T2, recombinant purified FRα (ECL assay …)
# Assay: ECL sandwich on FRα, signal to background; capture 26A9.C4; binder = detection Ab
row,Average of S/B,Binder
1,1,B1
2,1,B2
3,1,B3
4,4,B4

# Target: T2, recombinant purified FRα (ECL assay …)
# Assay: ECL sandwich on FRα, signal to background; capture 2F11.F8; binder = detection Ab
row,Average of S/B,Binder
1,1,B1
2,1,B2
3,1,B3
4,5,B4

# Target: T2, recombinant purified FRα (ECL assay …)
# Assay: ECL sandwich on FRα, signal to background; capture 5C12.H8; binder = detection Ab
row,Average of S/B,Binder
1,1,B1
2,1,B2
3,1,B3
4,1,B4

# Target: T2, recombinant purified FRα (ECL assay …)
# Assay: ECL sandwich on FRα, signal to background; capture 19D4.B7; binder = detection Ab
row,Average of S/B,Binder
1,449,B1
2,218,B2
3,253,B3
4,145,B4

# Target: T2, recombinant purified FRα (ECL assay …)
# Assay: ECL sandwich on FRα, signal to background; capture 28H12.G9; binder = detection Ab
row,Average of S/B,Binder
1,1,B1
2,1,B2
3,1,B3
4,7,B4

# Target: T2, recombinant purified FRα (ECL assay …)
# Assay: ECL sandwich on FRα, signal to background; capture 1C6.E12.G8; binder = detection Ab
row,Average of S/B,Binder
1,1,B1
2,1,B2
3,1,B3
4,3,B4

# Target: T2, recombinant purified FRα (ECL assay …)
# Assay: ECL sandwich on FRα, signal to background; capture 1D2.G8.G10; binder = detection Ab
row,Average of S/B,Binder
1,1,B1
2,1,B2
3,1,B3
4,5,B4

# Target: T2, recombinant purified FRα (ECL assay …)
# Assay: ECL sandwich on FRα, signal to background; capture 1A8.G11.E7; binder = detection Ab
row,Average of S/B,Binder
1,1,B1
2,1,B2
3,1,B3
4,89,B4

# Target: T2, recombinant purified FRα (ECL assay …)
# Assay: ECL sandwich on FRα, signal to background; capture 30G6.G6.G4.E9; binder = detection Ab
row,Average of S/B,Binder
1,144,B1
2,75,B2
3,61,B3
4,31,B4
